This note sets out measurements from paper PMC7971878.

In assay [1] the target is CSFV sE2 (soluble E2 protein, 693-1020aa) with (His)6 tag (classical swine fever virus). Nature of the assay: SPR; Biacore […] (20 μg/ml) […]; 20 mM Hepes, 150 mM NaCl, 0.005% Tween 20, pH 7.4, […]; 1:1 binding model. For orientation: Surface plasmon resonance follows binding to a sensor surface in real time, without labels.
Assay [2] shares this target. Nature of the assay: SPR; Biacore T100; […] (20 μg/ml) […]; 20 mM Hepes, 150 mM NaCl, 0.005% Tween 20, pH 7.4, […]; 1:1 binding model.

As a reminder, the Kd is the free concentration of one partner at which half of the binding sites on the other are occupied at equilibrium, for simple one-to-one binding. For “soluble metalloproteinase domain of pig ADAM17 (sMP) with (His)6 tag (from UniProt O77636 18-477) (domain or fragment)”, the figures for the Kd in assay [1] and in assay [2] were 3200 nM and 100 nM, respectively.
